Test results from article PMC2114473.

Key:
Experiment in all cases: radioligand binding
[1] = target: type III collagen, pepsinized
[2] = target: type I collagen, pepsinized
[3] = target: type II collagen, pepsinized

In the case of “human thrombospondin (TSP) (from UniProt P07996 19-1170) (natural protein)”, the cpm bound [1] is reported as 4940 cpm, the cpm bound [2] is reported as 5320 cpm and the cpm bound [3] is reported as 5320 cpm.
